30 sequences from the nanobody polyreactivity screen of Harvey et al. (2022) can be followed below.

The data set in a line: yeast display, Sf9 membrane polyspecificity reagent, FACS + sequencing; frameworks hold sequencing errors. An outline of the steps:
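Synthetic nanobody libraries on Saccharomyces cerevisiae BJ5465 were galactose-induced for 36–48 hours, stained 1 hour at 4 °C with 10% biotinylated, detergent-solubilized Sf9 membrane reagent and enriched on streptavidin microbeads. FACS then separated cells into low and high (top ~1%) gates by anti-HA (expression) and streptavidin (reagent binding) fluorescence. Genes were colony-PCR amplified, MiSeq 2 × 250 sequenced and CDR-length filtered. A clone's polyreactivity label is that of its gate of origin.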
Regarding “QVKLEESGGGLVQAGGSLRLSCAASGSIFVVNAMGRYRPAPGKERELVDTITESGGSTYYADSVKGRFTISRDNAKNTVYLQMNSLKPEDTAVYYCAAYWHHKGDYWGQGTQVTVSS”, the “polyreactivity (PSR sort gate)” value is given as “low polyreactivity”. For “QVKLEESGGGLVQAGGSLRLTCAASGRIFYLYGMGWYRQATGKERELVAAIDRRGTRTYYADSVKGRFTISCDNAQTTFYLQMNSVKPEDTAVYYCAARFAAYRTYTSYDYWGQGTQVTVSS”, the “polyreactivity (PSR sort gate)” value is “high polyreactivity”. “QVKLVDSGGGLVQAGGSLRLSCAASGFIFYSYDMGWYRQAPGKERELVATITSGDDTYYADSVKGRFTISRDNAKNTVYLQMNSQKPEDTAVGYWGQGTQVTVSS”: the “polyreactivity (PSR sort gate)” value was “low polyreactivity”. With “QVKLVDSGGGLVQAGGSLRLSCAASGRTFRYYTMGWYRQAPGTERELVAAITRNVGRTYYADSVKGRFTISRDNAKNTVYLQMNSLKPEDTAVYYCAAGTYDGGYHYDYWGQGTQLTVSS” the entry was “high polyreactivity”.

In the case of “QVKLVEAGGGLVQAGGSLRFSCAASGNIFQGNARGWYREAPGKERELVAAITYSGAGTYYADSVKGRFTISRDNAKNSVYLQMNSLNPEDTAVYYSAADWYTFEYDYWGQGTQVTVSS”, the “polyreactivity (PSR sort gate)” value is “low polyreactivity”.

On to “QVKLVESAGGLVQAGGSLRLSCAASGRTFVGNAMGWYRQEPGKEREVVAAITSRTGSTYYADSVKGRFTISRDNAKNTGYLQMNSLKPEDTAVYYGATPYYQIVYSRKAYNFWGQGTQVTVSS”, for which the “polyreactivity (PSR sort gate)” value was “high polyreactivity”. With “QVKLVESAGGLVQAGGSLRLSCAASGSIFNPYDMGWYRQAPGKERELVAAIDWSGGSTYYADSVKGRFTISRDNAKNTVYLQMNSLKPEDTAVYYCNAESYQDTLFGADNDYDYWGQGTQVTVSS” the entry was “low polyreactivity”. The entry for “QVKLVESGGGIVQAGGSLRLSCAASGRIFYSNVMGWYRQAPGKERELVATISGSSGRTYADSVKGRFTISRDNAKNTVYLQMNSLKPEDTAVYYCAADSPSVWGYRYDYDYWGQGTQVTVSS” is “low polyreactivity”; for “QVKLVESGGGLFQAGGSLRLSCAASVSIFYGNAIVWYRQAPGKERELVAAISSRGTRTYYADSVKGRFTISRDNAKNTVYLQMNSLNPEATAVYYCAAADYRFYNGPYSRRWLYGYWGQGTQVTVSS” it is “high polyreactivity”; for “QVKLVESGGGLVKAGGRLRLSCAASGSTFRKYTMGWYRQAPWKERELVAAITYRGDRTYYADSVKGRFTISRDNAKNNVYLQMNSLKQEDTAVYYCAAVYVRGDRYDYWGQGTQVTVSS” it is “high polyreactivity”.

As to “QVKLVESGGGLVQAGGRLRLSCAASGFTFPSNAMVWYRHAPGKEREMVAAISSTDSTNYADSVMGRFTISRDNAKNTVYLQMNSLNPEDTAVYYCAKRYPRYRYNTRGNDYWGQGTQVTVSS”, the “polyreactivity (PSR sort gate)” value was “low polyreactivity”. The entry for “QVKLVESGGGLVQAGGSLRISCAASGRTFGYNAMGWYRQAPGKERELVAGISGRTASTYYADSVKGRFTISRDNAKNTVYLQMNSLKPVDTEVYYCATQFGSIYRYDYWGQGTEVTVSS” is “high polyreactivity”; for “QVKLVESGGGLVQAGGSLRLSCAASGFTFALYSMGWYRQAPGKERELVAAITRRGGSTYYADSVKGRFTISRDNAKNTVYVQMNSLKPEDTAVYYCAKRERAIKVSRYDSHDYWGQGTQVTVSS” it is “high polyreactivity”. The entry for “QVKLVESGGGLVQAGGSLRLSCAASGFTFNANAMRWYRQAPGKERELVAAISLSGGRTYYADSVKGRFTISRDNAKNTVYLQMISLKPEDTAVYYCAASPDGSFRRFSRVVSGDYWGKGTQVTVSS” is “high polyreactivity”; for “QVKLVESGGGLVQAGGSLRLSCAASGFTFSGYDMGWYRQAPGKERELVAGISSGGVSTTYADSVKGRFTISRDNAKNTVYLQMNSLIPEDTAVYYCNAEWTSFDWGQGTQVTVSS” it is “low polyreactivity”; for “QVKLVESGGGLVQAGGSLRLSCAASGFTFYTYAMGWYRQAPGKETELFAAITGSGGRTYYADSVKGRFTISRDNAKNTVYLKMHSLKPEYTSLYYCAALYVYRPRTPYGYWGQGTQVTVSS” it is “high polyreactivity”.

For “QVKLVESGGGLVQAGGSLRLSCAASGFTVYGYSMGWYRQEPGKERELVAAITSVGDTNYADSVKGRFTISRDNAKNNVYLQINSLKPEDTAVYYCKADPVYYFYWWTGDYWGQGTQETVSS”, the “polyreactivity (PSR sort gate)” value is “low polyreactivity”. As to “QVKLVESGGGLVQAGGSLRLSCAASGFTYFINGMGWYRQAPGKERQLVAAIRSSGASTYYADSVKGRFTISRDNAKNTVYLQMNSLKPEDTAVYYCNARSSVCNSGADYDYWGQGTQVTVSS”, the “polyreactivity (PSR sort gate)” value is listed as “low polyreactivity”. With “QVKLVESGGGLVQAGGSLRLSCAASGRIFIEYARGWYRQAPGKERELVASSTSSGGRTTYADSVKGRFTISRDNAKNTVYLQINSLKPEDTAVYYCNKDYYPRGHTRFGYWGVGTQVTVSS” the entry was “low polyreactivity”; with “QVKLVESGGGLVQAGGSLRLSCAASGRIFRYYVMGWYRQAPGKERELVAAITSGGSTYYADSVKGRFTISRDNAKNTVYLQMNSLKPEDTAVYYCNVVGRYGSFRSAEMNYWGQGTQVTVSS”, “high polyreactivity”. Turning to “QVKLVESGGGLVQAGGSLRLSCAASGRTFAWYTMGRYRQAPGKERALVAAISGSGGSTYYADSVKGRFTISRDNAKNTVYLQLNSLKPEDTDVYYCARRVDSYYCHTRYYYWGQGTQVTVSS”, the “polyreactivity (PSR sort gate)” value was “high polyreactivity”.

As to “QVKLVESGGGLVQAGGSLRLSCAASGRTFKYYAMGWYRQAPGKERELVAAISWSGGSTYYADSVMGRFTISRDNAKNTVYLQMNSLKPEDTAVYYCAAVRNYHGTWYDYWGQGTQVTVSS”, the “polyreactivity (PSR sort gate)” value is “high polyreactivity”. Take “QVKLVESGGGLVQAGGSLRLSCAASGRTFPRYAMGWYRQAPGKERELVAVIYGGGTYYADSVKGRFTISRDNAKNTVYLQMNSLKPEDTSVYYCNARSYQSARFRGGYWGQGTQVTVSS”: the “polyreactivity (PSR sort gate)” value was “high polyreactivity”. The entry for “QVKLVESGGGLVQAGGSLRLSCAASGSIFALYAMGWYRQAPGKEREFVARISWGGGRTYYADSVKGRFTISRDNAQNTVYLQMNSLKPEDTAVYYCNAERAGTYSYDYWGQGTQVTVSS” is “high polyreactivity”. The entry for “QVKLVESGGGLVQAGGSLRLSCAASGSIFNTYVMGWYRQAPGKERELVAAITSSGGRTYYADSVKGRFTISRDNAKNTVYLQMNSLKPEDTAVYYCNTAQRWVGRNDYWGQGTQVTVSS” is “high polyreactivity”; for “QVKLVESGGGLVQAGGSLRLSCAASGSIFWSYAMGWYRQAPGKEREFVPSITGSGGTTTYADSVKGRFTISLDNAKNTVYVQMNSLKPEDTAVYYCNARLHGWYHVYYIYDYWGQGTQVTVSS” it is “low polyreactivity”; for “QVKLVESGGGLVQAGGSLRLSCAASGSIFWYNAMGWYRQAPGKERELVAAIRWRGGSTYYADSVNGRFTISRDNAKNTVYLQMNSLKPEDTAVYYCAAQVYVSQMYTSYYYWGQGTQVTVSS” it is “high polyreactivity”. With “QVKLVESGGGLVQAGGSLRLSCAASGSIFYTYAMGWYRPAPGKERELVAAISSGGSTDYADSVKGRFTISRDNAKNTVYLQMNSLKPEDTAVYYCAAVAVELASEYDYWGQGTQVTVSS” the entry was “low polyreactivity”. For the sequence “QVKLVESGGGLVQAGGSLRLSCAASGSTFASYAMGWYRQDPGKQRELVAAITRSGGSSTYADSVKGRFTISRDNAKITVYLQMNSLKPEDTAVYYCAARYLYSYYVSYDYWGQGTQLTVSS”, the “polyreactivity (PSR sort gate)” value was “high polyreactivity”.

On to “QVKLVESGGGLVQAGGSLRLSCAASGSTFFIYTKGLYRQAPGKEREFVAAISWTGGRTYYADSVKGRFTISRDNAKNTVYLQMNSLKPEDTAVYYCAARYKYSSYDYWGQGTQVTVSS”, for which the “polyreactivity (PSR sort gate)” value is reported as “high polyreactivity”.
